From the Human Domainome abundance scans (Beltran et al. 2025)
± gives the uncertainty stated by the source.

B1: PMS1 protein homolog 1, residues 572 to 637; numbered along this chain, P54277 (parent)
chain: KKPMSASALFVQDHRPQFLIENPKTSLEDATLQIEELWKTLSEEEKLKYEEKATKDLERYNSQMKR

Variants of: B1
Test: abundance fitness (aPCA) (normalised: wild type 0, dead -1); higher = more abundant; growth selection in yeast, the domain comes from the species named
Details: Homo sapiens

K2Q and K2L are within error of each other in abundance fitness: -0.545 ± 0.15 for the first, -0.08 ± 0.39 for the second.

Compared with T54G, T54W is lower in abundance fitness: 0.07 ± 0.071 for the first, -0.346 ± 0.074 for the second.

Compared with T54A, T54Y is lower in abundance fitness: 0.035 ± 0.071 for the first, -0.331 ± 0.12 for the second.

T54I and T54D are within error of each other in abundance fitness: -0.186 ± 0.087 for the first, -0.016 ± 0.16 for the second.

Y49T and Y49H are within error of each other in abundance fitness: -0.614 ± 0.087 for the first, -0.616 ± 0.37 for the second.

First: Y49G
Second: Y49Q
The abundance fitness of the first is lower: -0.761 ± 0.086 for the first, -0.496 ± 0.11 for the second.

Compared with Y49A, N61S is higher in abundance fitness: -0.507 ± 0.1 for the first, -0.092 ± 0.062 for the second.

N61P and N61L are within error of each other in abundance fitness: -0.197 ± 0.081 for the first, -0.333 ± 0.055 for the second.

Going from N61E to N61I, the abundance fitness falls from 0.047 ± 0.092 to -0.464 ± 0.13.

N61R and N61A are the same in abundance fitness: -0.15 ± 0.059 for the first, -0.15 ± 0.07 for the second.

Going from N61T to D13N, the abundance fitness falls from -0.029 ± 0.094 to -0.556 ± 0.25.

First: W38R
Second: W38L
The abundance fitness of the first is higher: -0.292 ± 0.13 for the first, -1.01 ± 0.14 for the second.

W38E and M64L are within error of each other in abundance fitness: -0.135 ± 0.13 for the first, -0.133 ± 0.062 for the second.

M64I and M64V are within error of each other in abundance fitness: -0.172 ± 0.12 for the first, 0.015 ± 0.067 for the second.

K39W and K39V are within error of each other in abundance fitness: -0.507 ± 0.21 for the first, -0.465 ± 0.23 for the second.

Going from K39G to K39A, the abundance fitness rises from -0.875 ± 0.12 to -0.062 ± 0.1.

K39E and K39R are within error of each other in abundance fitness: -0.095 ± 0.11 for the first, -0.285 ± 0.099 for the second.

T31S and T31Q are within error of each other in abundance fitness: -0.335 ± 0.26 for the first, -0.359 ± 0.28 for the second.

L32T and L32G are within error of each other in abundance fitness: -0.246 ± 0.28 for the first, -0.261 ± 0.092 for the second.

L32K and E51D are within error of each other in abundance fitness: 0.002 ± 0.14 for the first, -0.072 ± 0.12 for the second.

E51K and E51A are within error of each other in abundance fitness: -0.156 ± 0.076 for the first, -0.088 ± 0.054 for the second.

E51F and E51G are within error of each other in abundance fitness: -0.224 ± 0.074 for the first, -0.237 ± 0.054 for the second.

E51T and E51S are within error of each other in abundance fitness: -0.057 ± 0.058 for the first, -0.158 ± 0.049 for the second.

Going from E51Y to E51M, the abundance fitness rises from -0.513 ± 0.11 to -0.132 ± 0.099.

Compared with T40P, T40D is higher in abundance fitness: -0.537 ± 0.14 for the first, -0.101 ± 0.11 for the second.

T40I and T40V are within error of each other in abundance fitness: -0.165 ± 0.1 for the first, -0.239 ± 0.1 for the second.

T40S and T40A are within error of each other in abundance fitness: -0.128 ± 0.092 for the first, -0.294 ± 0.12 for the second.

First: T40K
Second: A53T
The abundance fitness of the first is higher: -0.099 ± 0.12 for the first, -0.345 ± 0.076 for the second.

A53N and A53Y are within error of each other in abundance fitness: -0.363 ± 0.12 for the first, -0.22 ± 0.089 for the second.

A53Q and A53G are within error of each other in abundance fitness: -0.48 ± 0.13 for the first, -0.52 ± 0.057 for the second.

Compared with A53W, A53M is higher in abundance fitness: -0.79 ± 0.094 for the first, -0.387 ± 0.083 for the second.

First: A53S
Second: V11I
The abundance fitness of the first is higher: -0.121 ± 0.068 for the first, -0.432 ± 0.23 for the second.

Compared with F10R, R15L is higher in abundance fitness: -0.651 ± 0.074 for the first, 0.003 ± 0.084 for the second.

Going from R15W to R15D, the abundance fitness falls from -0.408 ± 0.12 to -0.729 ± 0.11.

R15T and R15Q are within error of each other in abundance fitness: -0.111 ± 0.27 for the first, -0.336 ± 0.12 for the second.

First: R15E
Second: L37K
The abundance fitness of the first is lower: -0.409 ± 0.14 for the first, 0.116 ± 0.13 for the second.

L37E and L37H are within error of each other in abundance fitness: -0.359 ± 0.2 for the first, -0.01 ± 0.28 for the second.

L37G and L37A are within error of each other in abundance fitness: -0.175 ± 0.082 for the first, -0.052 ± 0.14 for the second.

First: L37V
Second: L37W
The abundance fitness of the first is higher: -0.127 ± 0.12 for the first, -0.386 ± 0.094 for the second.

E44F and E44M are within error of each other in abundance fitness: -0.284 ± 0.11 for the first, -0.408 ± 0.089 for the second.

E44H and S62E are within error of each other in abundance fitness: -0.071 ± 0.12 for the first, -0.035 ± 0.11 for the second.

Going from S62N to S62T, the abundance fitness falls from 0.017 ± 0.12 to -0.227 ± 0.093.

S62L and S62Y are within error of each other in abundance fitness: -0.071 ± 0.071 for the first, -0.104 ± 0.096 for the second.

S5G and S5C are within error of each other in abundance fitness: -0.032 ± 0.087 for the first, -0.333 ± 0.44 for the second.

S5M and S5D are within error of each other in abundance fitness: -0.411 ± 0.13 for the first, -0.341 ± 0.34 for the second.

Going from S5P to S5A, the abundance fitness falls from 0.322 ± 0.3 to -0.252 ± 0.13.

E45M and E45I are within error of each other in abundance fitness: -0.21 ± 0.1 for the first, -0.085 ± 0.14 for the second.

E45F and E45P are within error of each other in abundance fitness: -0.606 ± 0.16 for the first, -0.811 ± 0.14 for the second.

First: E45L
Second: S7A
The abundance fitness of the first is lower: -0.262 ± 0.067 for the first, 0.007 ± 0.096 for the second.

S7N and S7G are within error of each other in abundance fitness: -0.055 ± 0.18 for the first, -0.134 ± 0.083 for the second.

S7R and R66P are within error of each other in abundance fitness: 0.121 ± 0.076 for the first, 0.082 ± 0.1 for the second.

R66V and R66S are within error of each other in abundance fitness: 0.097 ± 0.069 for the first, -0.063 ± 0.12 for the second.

R66N and R66K are within error of each other in abundance fitness: 0.031 ± 0.34 for the first, -0.152 ± 0.33 for the second.

Q33G and Q33P are within error of each other in abundance fitness: -0.405 ± 0.12 for the first, -0.579 ± 0.17 for the second.

K52L and K52N are within error of each other in abundance fitness: -0.178 ± 0.053 for the first, -0.285 ± 0.11 for the second.

Compared with K52A, K52Y is lower in abundance fitness: -0.101 ± 0.1 for the first, -0.302 ± 0.091 for the second.

P3C and P3M are within error of each other in abundance fitness: -0.358 ± 0.28 for the first, -0.333 ± 0.4 for the second.

P3S and P3I are within error of each other in abundance fitness: -0.605 ± 0.34 for the first, -0.305 ± 0.45 for the second.

K65N and K65Q are within error of each other in abundance fitness: -0.163 ± 0.12 for the first, 0.02 ± 0.11 for the second.

K65Y and K65F are within error of each other in abundance fitness: -0.207 ± 0.19 for the first, -0.276 ± 0.22 for the second.

K65A and K65I are within error of each other in abundance fitness: 0.014 ± 0.092 for the first, -0.25 ± 0.2 for the second.

K65C and K65E are within error of each other in abundance fitness: -0.203 ± 0.24 for the first, 0.073 ± 0.12 for the second.

K65W and K46H are within error of each other in abundance fitness: -0.502 ± 0.22 for the first, -0.353 ± 0.08 for the second.

Going from K46L to K46E, the abundance fitness falls from -0.685 ± 0.046 to -1.08 ± 0.1.

First: K46D
Second: K46M
The abundance fitness of the first is lower: -0.848 ± 0.16 for the first, -0.508 ± 0.075 for the second.

K46C and A30L are within error of each other in abundance fitness: -0.569 ± 0.099 for the first, -0.634 ± 0.38 for the second.

A30W and A30R are within error of each other in abundance fitness: -0.632 ± 0.16 for the first, -0.666 ± 0.15 for the second.

A30E and A30V are within error of each other in abundance fitness: -0.414 ± 0.21 for the first, -0.29 ± 0.17 for the second.

S26N and S26G are within error of each other in abundance fitness: -0.167 ± 0.068 for the first, -0.223 ± 0.098 for the second.

Going from S26H to S26D, the abundance fitness rises from -0.349 ± 0.06 to -0.102 ± 0.11.

Compared with S26I, S26A is higher in abundance fitness: -0.605 ± 0.053 for the first, -0.229 ± 0.063 for the second.

Going from S26C to S26F, the abundance fitness falls from -0.111 ± 0.069 to -0.775 ± 0.08.

Going from M4K to M4C, the abundance fitness falls from 0.057 ± 0.14 to -0.627 ± 0.18.

M4Q and M4F are within error of each other in abundance fitness: 0.043 ± 0.12 for the first, -0.12 ± 0.18 for the second.

Going from M4W to M4A, the abundance fitness rises from -0.485 ± 0.11 to -0.072 ± 0.072.

M4N and M4Y are within error of each other in abundance fitness: -0.157 ± 0.47 for the first, -0.091 ± 0.15 for the second.

E35C and E35S are within error of each other in abundance fitness: -0.274 ± 0.098 for the first, -0.189 ± 0.1 for the second.

E35R and E35M are within error of each other in abundance fitness: -0.142 ± 0.081 for the first, -0.038 ± 0.14 for the second.

E35F and L41P are within error of each other in abundance fitness: -0.251 ± 0.31 for the first, -0.622 ± 0.22 for the second.

L41D and L41C are within error of each other in abundance fitness: -0.319 ± 0.094 for the first, -0.196 ± 0.13 for the second.

First: L41R
Second: K55M
The abundance fitness of the first is lower: -0.202 ± 0.058 for the first, -0.053 ± 0.089 for the second.

Going from K55S to K55P, the abundance fitness falls from -0.067 ± 0.062 to -0.339 ± 0.11.

K55L and K55W are within error of each other in abundance fitness: -0.065 ± 0.073 for the first, -0.16 ± 0.089 for the second.

K55R showed an abundance fitness of -0.076 ± 0.055.
